From patent US6933142 (University of California, dated 2005)
Blank lines part the entries; values can stand above or below the molecule they belong to.

Experiments:
[1] = molecular target: L-selectin on Jurkat cells (UniProt P14151); assay: cell-based or functional assay
[2] = molecular target: CD34 on CHO/FTVII/C2GnT cells, no sulfotransferase cDNA; assay: flow cytometry; CHO/FTVII/C2GnT cells with CD34 cDNA alone
[3] = molecular target: CD34 on CHO/FTVII/C2GnT cells cotransfected with KSGal6ST cDNA; assay: flow cytometry; CHO/FTVII/C2GnT cells with CD34 (2 µg) and 1.0 µg KSGal6ST cDNA
[4] = molecular target: CD34 on CHO/FTVII/C2GnT cells cotransfected with KSGal6ST cDNA; assay: flow cytometry; CHO/FTVII/C2GnT cells with CD34 (2 µg) and 1.5 µg KSGal6ST cDNA
[5] = molecular target: CD34 on CHO/FTVII/C2GnT cells cotransfected with HEC-GlcNAc6ST cDNA; assay: flow cytometry; CHO/FTVII/C2GnT cells with CD34 (2 µg) and 1 µg HEC-GlcNAc6ST cDNA
[6] = molecular target: CD34 on CHO/FTVII/C2GnT cells cotransfected with HEC-GlcNAc6ST cDNA; assay: flow cytometry; CHO/FTVII/C2GnT cells with CD34 (2 µg) and 1.5 µg HEC-GlcNAc6ST cDNA
[7] = molecular target: CD34 on CHO/FTVII/C2GnT cells cotransfected with KSGal6ST and HEC-GlcNAc6ST cDNAs; assay: flow cytometry; CHO/FTVII/C2GnT cells with CD34 (2 µg), 1 µg KSGal6ST and 0.5 µg HEC-GlcNAc6ST cDNA
[8] = molecular target: CD34 on CHO/FTVII/C2GnT cells cotransfected with KSGal6ST and HEC-GlcNAc6ST cDNAs; assay: flow cytometry; CHO/FTVII/C2GnT cells with CD34 (2 µg), 0.5 µg KSGal6ST and 0.5 µg HEC-GlcNAc6ST cDNA
[9] = molecular target: CD34 on CHO/FTVII/C2GnT cells cotransfected with KSGal6ST and HEC-GlcNAc6ST cDNAs; assay: flow cytometry; CHO/FTVII/C2GnT cells with CD34 (2 µg), 0.5 µg KSGal6ST and 1.0 µg HEC-GlcNAc6ST cDNA
[10] = molecular target: T1, rGlyCAM-1/IgG FT KSGal6ST (human, UniProt Q02596 20-151 (mouse entry), limits assumed, glycans made in COS cells co-transfected with C2GnT, FucT-VII and KSGal6ST (fucosylated, Gal-6-sulfate)); assay: cell-based or functional assay
T1 sequence (looked up): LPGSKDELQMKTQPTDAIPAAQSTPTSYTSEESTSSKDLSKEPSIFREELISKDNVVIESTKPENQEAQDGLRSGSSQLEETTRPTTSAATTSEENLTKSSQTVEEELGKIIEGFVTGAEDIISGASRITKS

[11] = molecular target: T2, rGlyCAM-1/IgG FT huGlcNAc6ST (human, UniProt Q02596 20-151 (mouse entry), limits assumed, glycans made in COS cells co-transfected with C2GnT, FucT-VII and huGlcNAc6ST (fucosylated, GlcNAc-6-sulfate)); assay: cell-based or functional assay
T2 sequence (looked up): T1 sequence (looked up)

[12] = molecular target: T3, rGlyCAM-1/IgG FT HEC-GlcNAc6ST (human, UniProt Q02596 20-151 (mouse entry), limits assumed, glycans made in COS cells co-transfected with C2GnT, FucT-VII and HEC-GlcNAc6ST (fucosylated, GlcNAc-6-sulfate)); assay: cell-based or functional assay
T3 sequence (looked up): T1 sequence (looked up)

rGlyCAM-1/IgG = molecular target: T4, rGlyCAM-1/IgG (human, UniProt Q02596 20-151 (mouse entry), limits assumed, not fucosylated by FucT-VII, no sulfotransferase co-transfected); assay: cell-based or functional assay
T4 sequence (looked up): T1 sequence (looked up)

CD34 on CHO/FTVII/C2GnT cells cotransfected with KSGal6ST and HEC-GlcNAc6ST cDNAs, sequence (P28906 32-385): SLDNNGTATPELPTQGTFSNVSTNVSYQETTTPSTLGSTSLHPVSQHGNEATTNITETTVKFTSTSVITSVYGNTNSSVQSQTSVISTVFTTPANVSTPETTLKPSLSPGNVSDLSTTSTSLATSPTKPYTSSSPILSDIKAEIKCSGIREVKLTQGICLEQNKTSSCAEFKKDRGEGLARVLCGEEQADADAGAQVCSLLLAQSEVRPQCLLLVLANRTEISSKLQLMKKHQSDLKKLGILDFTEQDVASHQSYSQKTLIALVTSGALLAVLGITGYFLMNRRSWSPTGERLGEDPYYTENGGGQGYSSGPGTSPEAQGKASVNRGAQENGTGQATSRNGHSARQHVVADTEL
CD34 on CHO/FTVII/C2GnT cells cotransfected with KSGal6ST cDNA, sequence (P28906 32-385): as above
CD34 on CHO/FTVII/C2GnT cells cotransfected with HEC-GlcNAc6ST cDNA, sequence (P28906 32-385): as above
CD34 on CHO/FTVII/C2GnT cells, no sulfotransferase cDNA, sequence (P28906 32-385): as above

Molecule: L-selectin/IgM chimera (from UniProt P18337 39-332; P01871 106-453) (Fc fusion)
MFI (background signal) [2]: 139 MFI
MFI (background subtracted) [3]: 364 MFI
MFI (background subtracted) [4]: 391 MFI
MFI (background subtracted) [5]: 114 MFI
MFI (background subtracted) [6]: 163 MFI
MFI (background subtracted) [7]: 917 MFI
MFI (background subtracted) [8]: 935 MFI
MFI (background subtracted) [9]: 830 MFI

B2: human HEC-GlcNAc6ST (enzyme)
chain: MLLPKKMKLLLFLVSQMAILALFFHMYSHNISSLSMKAQPERMHVLVLSSWRSGSSFVGQLFGQHPDVFYLMEPAWHVWMTFKQSTAWMLHMAVRDLIRAVFLCDMSVFDAYMEPGPRRQSSLFQWENSRALCSAPACDIIPQDEIIPRAHCRLLCSQQPFEVVEKACRSYSHVVLKEVRFFNLQSLYPLLKDPSLNLHIVHLVRDPRAVFRSRERTKGDLMIDSRIVMGQHEQKLKKEDQPYYVMQVICQSQLEIYKTIQSLPKALQERYLLVRYEDLARAPVAQTSRMYEFVGLEFLPHLQTWVHNITRGKGMGDHAFHTNARDALNVSQAWRWSLPYEKVSRLQKACGDAMNLLGYRHVRSEQEQRNLLLDLLSTWTVPEQIH
incorporation of ^35S-SO4 into the GlyCAM-1 chimera in co-transfected COS cells (rGlyCAM-1/IgG): > 10 fold

Other lines, results leading:

Rolling of Jurkat cells on rGlyCAM-1/IgG FT after treatment with 5 µg/ml DREG56 (rolling cells) [1]: 0
Molecule: DREG56 (antibody)

fraction of tethered cells relative to non-sulfated GlyCAM-1/IgG (FT) [10]: 6 fold
fraction of tethered cells relative to non-sulfated GlyCAM-1/IgG (FT) [11]: 2 fold
fraction of tethered cells relative to non-sulfated GlyCAM-1/IgG (FT) [12]: 2 fold
B1: L-selectin on Jurkat cells (receptor, UniProt P14151 39-372, looked up)
chain: WTYHYSEKPMNWQRARRFCRDNYTDLVAIQNKAEIEYLEKTLPFSRSYYWIGIRKIGGIWTWVGTNKSLTEEAENWGDGEPNNKKNKEDCVEIYIKRNKDAGKWNDDACHKLKAALCYTASCQPWSCSGHGECVEIINNYTCNCDVGYYGPQCQFVIQCEPLEAPELGTMDCTHPLGNFSFSSQCAFSCSEGTNLTGIEETTCGPFGNWSSPEPTCQVIQCEPLSAPDLGIMNCSHPLASFSFTSACTFICSEGTELIGKKKTICESSGIWSNPSPICQKLDKSFSMIKEGDYNPLFIPVAVMVTAFSGLAFIIWLARRLKKGKKSKRSMNDPY
